{"source": "patent US20250276018A1", "about": "(AFFYIMMUNE THERAPEUTICS, published 2025)", "binders": {"B1": {"name": "Affy7-L9A CAR (other)", "chain": "GSEQKLISEEDLGSQVQLQQSGPELVRPGASVKMSCRASGYTFTSYWLHWVKQRPGQGLEWIGMIDPSNSDTRFNPNFKDKATLNVDRSSNTAYMLLSSLTSADSAVYYCATYGSYVSPADYWGQGTSVTVSSGGGGSGGGGSGGGGSDIMMSQSPSSLTVSVGEKVTVSCKSSQSLLYTSSQKNYLAWYQQKPGQSPKLLIYWASTRESGVPDRFTGSGSGTDFTLTITSVKADDLAVYYCQQYYAYPWTFGGGTKLEIKRASTTTPAPRPPTPAPTIASQPLSLRPEACRPAAGGAVHTRGLDFACDFWVLVVVGGVLACYSLLVTVAFIIFWVRSKRSRLLHSDYMNMTPRRPGPTRKHYQPYAPPRDFAAYRSLRVKFSRSADAPAYQQGQNQLYNELNLGRREEYDVLDKRRGRDPEMGGKPRRKNPQEGLYNELQKDKMAEAYSEIGMKGERRRGKGHDGLYQGLSTATKDTYDALHMQALPPR", "notes": "CAR on transduced human T cells; L to A in HC CDR3; P2A remnant not included; also called MycT-Affy7-L9A CAR-SSTR2"}}, "key": {"[1]": {"target": "T1, AF647 labeled c-met protein (UniProt P08581 25-932, limits assumed, labeled with AlexaFluor 647 (AF647))", "T1 construct": "Soluble labeled c-met protein titrated on CAR-T cells", "T1 sequence (P08581 25-932 limits assumed)": "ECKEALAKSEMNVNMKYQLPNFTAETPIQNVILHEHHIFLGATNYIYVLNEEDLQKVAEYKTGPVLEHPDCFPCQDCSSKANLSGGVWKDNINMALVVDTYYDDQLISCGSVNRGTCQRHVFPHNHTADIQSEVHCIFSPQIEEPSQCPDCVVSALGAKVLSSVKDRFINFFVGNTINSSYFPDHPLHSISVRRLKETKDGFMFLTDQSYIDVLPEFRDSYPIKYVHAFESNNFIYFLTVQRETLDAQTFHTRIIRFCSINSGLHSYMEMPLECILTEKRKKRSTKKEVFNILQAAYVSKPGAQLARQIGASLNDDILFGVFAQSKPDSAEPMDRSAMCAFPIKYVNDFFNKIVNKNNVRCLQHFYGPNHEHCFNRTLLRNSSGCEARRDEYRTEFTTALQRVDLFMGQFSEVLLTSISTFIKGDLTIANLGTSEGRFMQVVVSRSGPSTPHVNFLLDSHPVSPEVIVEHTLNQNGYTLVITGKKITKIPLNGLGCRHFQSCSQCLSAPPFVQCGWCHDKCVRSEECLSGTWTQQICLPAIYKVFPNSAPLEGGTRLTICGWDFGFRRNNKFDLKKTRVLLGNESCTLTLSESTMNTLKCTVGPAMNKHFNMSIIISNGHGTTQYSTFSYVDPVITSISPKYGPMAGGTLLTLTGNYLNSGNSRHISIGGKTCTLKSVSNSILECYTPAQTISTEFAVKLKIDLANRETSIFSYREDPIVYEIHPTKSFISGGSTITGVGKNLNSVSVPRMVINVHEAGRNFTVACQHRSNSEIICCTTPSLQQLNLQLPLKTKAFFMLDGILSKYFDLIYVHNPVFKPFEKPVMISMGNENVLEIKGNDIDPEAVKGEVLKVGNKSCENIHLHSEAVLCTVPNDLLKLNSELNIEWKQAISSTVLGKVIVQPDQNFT", "assay": "flow cytometry, EC50 relative to parental Affy7 CAR-T cells (Round 1)", "description": "(§1) Binding of labeled c-MET to CAR-T cells expressing the affinity tuned c-MET scFvs was evaluated by transducing lentivirus anti-c-MET CAR particles into human T cells to form c-MET CAR-T cells incubated with AF647-labeled c-MET. […] Following a 48 hr. incubation at 37° C., the culture media was brought up to […] per well and incubated at 37° C. for 10 days.\n(§2) Cells were stained on ice for 30 mins and then washed with PBS. After washing, residually bound protein on CAR T cells were measured on a flow cytometer (Beckman, CytoFLEX®). The resulting binding data was fit using a non-linear regression analysis on GraphPad Prism to calculate half effective dose concentration (EC₅₀) values. The results of this analysis are shown in FIGS. 2-5 and Tables 2-5 below."}, "[2]": {"target": "T1, AF647 labeled c-met protein", "assay": "flow cytometry, AF647-labeled c-met protein on CAR-T cells; lower end tied to Affy7-L9A by Table 2", "description": "as §2"}, "[3]": {"target": "T1, AF647 labeled c-met protein", "assay": "flow cytometry, AF647-labeled c-met protein titrated on CAR-T cells (Round 1)", "description": "as §1, §2"}, "[4]": {"target": "T2, c-MET on human target cells (human, UniProt P08581 25-1390)", "T2 sequence (P08581 25-1390)": "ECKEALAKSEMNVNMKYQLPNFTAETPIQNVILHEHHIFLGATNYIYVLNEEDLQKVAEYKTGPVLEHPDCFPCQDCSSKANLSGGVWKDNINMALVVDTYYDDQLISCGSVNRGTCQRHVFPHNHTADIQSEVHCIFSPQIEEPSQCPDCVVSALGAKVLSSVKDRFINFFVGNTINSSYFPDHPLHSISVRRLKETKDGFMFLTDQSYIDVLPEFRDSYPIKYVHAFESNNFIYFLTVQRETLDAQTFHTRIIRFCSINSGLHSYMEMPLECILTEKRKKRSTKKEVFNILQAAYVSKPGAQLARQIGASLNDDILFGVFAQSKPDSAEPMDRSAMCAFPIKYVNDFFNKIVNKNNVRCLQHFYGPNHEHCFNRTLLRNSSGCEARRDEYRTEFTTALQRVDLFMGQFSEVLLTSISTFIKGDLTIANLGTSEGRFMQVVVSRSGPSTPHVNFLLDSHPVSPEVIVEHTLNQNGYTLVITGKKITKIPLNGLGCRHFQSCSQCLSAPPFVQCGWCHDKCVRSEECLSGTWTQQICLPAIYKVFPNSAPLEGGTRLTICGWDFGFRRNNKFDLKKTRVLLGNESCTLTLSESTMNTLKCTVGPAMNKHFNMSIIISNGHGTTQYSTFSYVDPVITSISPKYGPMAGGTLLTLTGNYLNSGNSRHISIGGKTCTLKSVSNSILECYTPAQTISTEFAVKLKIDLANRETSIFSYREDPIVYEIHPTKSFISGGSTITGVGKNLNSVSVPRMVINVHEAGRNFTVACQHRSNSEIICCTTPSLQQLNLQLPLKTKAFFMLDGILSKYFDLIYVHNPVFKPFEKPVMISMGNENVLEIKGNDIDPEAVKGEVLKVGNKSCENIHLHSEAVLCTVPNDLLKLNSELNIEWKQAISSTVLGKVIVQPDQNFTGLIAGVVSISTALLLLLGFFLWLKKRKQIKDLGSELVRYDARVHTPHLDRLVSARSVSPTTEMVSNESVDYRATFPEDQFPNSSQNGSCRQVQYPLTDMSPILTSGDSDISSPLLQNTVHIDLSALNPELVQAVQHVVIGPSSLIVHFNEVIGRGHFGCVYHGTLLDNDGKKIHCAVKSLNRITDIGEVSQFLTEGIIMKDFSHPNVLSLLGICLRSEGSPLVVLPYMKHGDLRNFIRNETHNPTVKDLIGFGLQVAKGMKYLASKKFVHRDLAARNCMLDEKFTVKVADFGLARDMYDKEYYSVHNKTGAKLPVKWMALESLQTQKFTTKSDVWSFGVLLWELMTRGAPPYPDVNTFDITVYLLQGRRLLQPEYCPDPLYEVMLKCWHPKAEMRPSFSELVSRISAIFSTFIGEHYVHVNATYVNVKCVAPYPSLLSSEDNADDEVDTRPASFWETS", "assay": "cell-based or functional assay"}, "[5]": {"target": "T2, c-MET on human target cells", "assay": "cell-based or functional assay", "remark": "listed apart in the source"}, "[6]": {"target": "T2, c-MET on human target cells", "assay": "cell-based or functional assay", "remark": "listed apart in the source"}, "[7]": {"target": "T2, c-MET on human target cells", "assay": "cell-based or functional assay", "remark": "listed apart in the source"}}}
{"binder": "B1", "values": [{"measurement": "Fold Change", "setting": "[1]", "value": 20, "unit": "fold"}, {"measurement": "fold reduction in affinity relative to the parental-expressing CARs", "setting": "[2]", "value": "20 to 7640", "unit": "fold"}, {"measurement": "EC50", "setting": "[3]", "value": 1000, "unit": "nM"}, {"measurement": "cytotoxicity, Normal Human Kidney Cells, 8 hrs", "setting": "[4]", "value": 12.9}, {"measurement": "cytotoxicity, Normal Human Kidney Cells, 16 hrs", "setting": "[4]", "value": 23.9}, {"measurement": "cytotoxicity, Normal Human Kidney Cells, 24 hrs", "setting": "[4]", "value": 30.7}, {"measurement": "cytotoxicity, Normal Human Kidney Cells, 32 hrs", "setting": "[4]", "value": 38.8}, {"measurement": "cytotoxicity, Normal Human Kidney Cells, 40 hrs", "setting": "[4]", "value": 46.9}, {"measurement": "cytotoxicity, Normal Human Kidney Cells, 48 hrs", "setting": "[4]", "value": 54.7}, {"measurement": "cytotoxicity, Normal Human Colon Cells, 8 hrs", "setting": "[5]", "value": 12.1}, {"measurement": "cytotoxicity, Normal Human Colon Cells, 16 hrs", "setting": "[5]", "value": 25}, {"measurement": "cytotoxicity, Normal Human Colon Cells, 24 hrs", "setting": "[5]", "value": 27.2}, {"measurement": "cytotoxicity, Normal Human Colon Cells, 32 hrs", "setting": "[5]", "value": 38.2}, {"measurement": "cytotoxicity, Normal Human Colon Cells, 40 hrs", "setting": "[5]", "value": 48.5}, {"measurement": "cytotoxicity, Normal Human Colon Cells, 48 hrs", "setting": "[5]", "value": 49.6}, {"measurement": "cytotoxicity, Normal Human Liver Cells, 8 hrs", "setting": "[6]", "value": 13.7}, {"measurement": "cytotoxicity, Normal Human Liver Cells, 16 hrs", "setting": "[6]", "value": 24.5}, {"measurement": "cytotoxicity, Normal Human Liver Cells, 24 hrs", "setting": "[6]", "value": 32.8}, {"measurement": "cytotoxicity, Normal Human Liver Cells, 32 hrs", "setting": "[6]", "value": 37.9}, {"measurement": "cytotoxicity, Normal Human Liver Cells, 40 hrs", "setting": "[6]", "value": 50.1}, {"measurement": "cytotoxicity, Normal Human Liver Cells, 48 hrs", "setting": "[6]", "value": 60}, {"measurement": "cytotoxicity, Normal Human Lung Cells, 8 hrs", "setting": "[7]", "value": 7.5}, {"measurement": "cytotoxicity, Normal Human Lung Cells, 16 hrs", "setting": "[7]", "value": 20.9}, {"measurement": "cytotoxicity, Normal Human Lung Cells, 24 hrs", "setting": "[7]", "value": 38.3}, {"measurement": "cytotoxicity, Normal Human Lung Cells, 32 hrs", "setting": "[7]", "value": 46.4}, {"measurement": "cytotoxicity, Normal Human Lung Cells, 40 hrs", "setting": "[7]", "value": 50.7}, {"measurement": "cytotoxicity, Normal Human Lung Cells, 47 hrs", "setting": "[7]", "value": 45.3}]}
